According to patent US20110165652A1, “COMPOSITIONS, METHODS AND SYSTEMS FOR SINGLE MOLECULE SEQUENCING” (LIFE TECHNOLOGIES CORPORATION, priority 2008, published 2011):

Test system: dATP-1-ROX
Assay: Primer extension by various polymerases with dATP-1-ROX or natural dATP
Format: biochemical
Conditions: dATP-1-ROX vs natural dATP, optimal temperature of each polymerase
Experimental: FIG. 6 depicts the results of experiments to assess the nucleotide incorporation efficiency of various DNA mutated and non-mutated polymerases (Sequenase; Thermo-Sequenase; wild-type Taq from Promega; HIV reverse transcriptase; and a mutant Taq polymerase comprising the mutation F647C) using both natural (unlabeled) dATP as well as the gamma-modified nucleotide dATP-1-Rox. Each reaction was conducted at the individual polymerase's optimal temperature with equimolar concentrations of enzymatically cleared gamma-labeled nucleotides and units of polymerase. […] Primer extension reactions were performed in the presence of the nucleotide dATP-1-ROX or natural dATP. The ‘Neg Control’ is a control lacking both polymerase and nucleotide. The extension products were size separated using denaturing gel electrophoresis, and visualized on a Bio-Rad fx Imager. Incorporation of the gamma-labeled nucleotide results in the production of a resolvable extension duplex that indicates incorporation of a single dATP. The non-extended primer is the lower band; extension products are more slowly migrating. […] FIG. 81 is a solid ribbon diagram generated in DS Viewer Pro of Taq DNA Polymerase.

B1: VTaq647C: engineered mutant Taq polymerase comprising the mutation F647C, SEQ. ID: 7 (protein, listed as Thermus aquaticus)
chain: ALEEAPWPPPEGAFVGFVLSRKEPMWADLLALAAARGGRVHRAPEPYKALRDLKEARGLLAKDLSVLALREGLGLPPGDDPMLLAYLLDPSNTTPEGVARRYGGEWTEEAGERAALSERLFANLWGRLEGEERLLWLYREVERPLSAVLAHMEATGVRLDVAYLRALSLEVAEEIARLEAEVFRLAGHPFNLNSRDQLERVLFDELGLPAIGKTEKTGKRSTSAAVLEALREAHPIVEKILQYRELTKLKSTYIDPLPDLIHPRTGRLHTRFNQTATATGRLSSSDPNLQNIPVRTPLGQRIRRAFIAEEGWLLVALDYSQIELRVLAHLSGDENLIRVFQEGRDIHTETASWMCGVPREAVDPLMRRAAKTINFGVLYGMSAHRLSQELAIPYEEAQAFIERYFQSFPKVRAWIEKTLEEGRRRGYVETLFGRRRYVPDLEARVKSVREAAERMAFNMPVQGTAADLMKLAMVKLFPRLEEMGARMLLQVHDELVLEAPKERAEAVARLAKEVMEGVYPLAVPLEVEVGIGEDWLSAKE
incorporation of gamma-labeled nucleotide: significantly improved incorporation
